Measurements from patent US8410045B2, “Camptothecin-peptide conjugates and pharmaceutical compositions containing the same” (Drais Pharmaceuticals, Inc., priority 2006, dated 2013).
Where two headings read alike, the source gives them in different places. Where a SMILES comes first, the peptide text is derived from it. Where no end group is shown, it is not given here. The star is where a group is joined. X2 = CCc1c2c(nc3ccc(OC(=O)[C@H]4CC[C@H](CNC(=O)CCCCCNC(=O)C5CCC(CN6C(=O)CC(*)C6=O)CC5)CC4)cc13)-c1cc3c(c(=O)n1C2)COC(=O)[C@]3(O)CC; X4 = CC[C@@]1(O)C(=O)OCc2c1cc1n(c2=O)Cc2cc3cc(OC(=O)[C@H]4CC[C@H](CNC(=O)C5CCC(CN6C(=O)CC(*)C6=O)CC5)CC4)ccc3nc2-1; X3 = CCc1c2c(nc3ccc(OC(=O)CCCCCNC(=O)C4CCC(CN5C(=O)CC(*)C5=O)CC4)cc13)-c1cc3c(c(=O)n1C2)COC(=O)[C@]3(O)CC

Columns and labels:
[1] = tested on: NCI-H460 human epithelial lung carcinoma cells; test: In vitro cytotoxicity (WST-1 cell viability); type: cell-based
Method: (§1) Cytotoxic evaluation was performed by seeded cells for 24 h prior to the addition of the therapeutic compound. Cells were incubated for 48 h (37° C.) with different dilutions of the therapeutic compound. Cell viability was then assessed using the WST-1 assay (Roche). The results are expressed as mean cytotoxic concentrations (IC50 value or molar concentration that inhibits 50% of cell viability) that were estimated from sigmoid regression, using Graph Pad Prism 3.02 software.
NCI-H460 (ATCC#: HTB-177): human epithelial lung carcinoma cells. Cells were cultured in RPMI 1640+glutamax and 10% of fetal bovine serum. Cells were plated at a density of 10,000 cells/well in 96-well plates.

[2] = tested on: HCT 116 human epithelial colon carcinoma cells; test: cells; type: cell-based
Method: as §1
HCT 116 (ATCC #: CCL-247): human epithelial colon carcinoma cells. Cells were cultured in Mc Coy's 5a medium+1.5 mM L-glutamine and 10% fetal bovine serum. Cells were plated at a density of 8000 cells/well in 96-well plates.

[3] = Stability of conjugates in citrated plasma at 37° C. (half life time, HPLC fluorescence); type: in vitro ADME; details: dog
Method: (§2) The stability of the conjugates was tested in citrated plasma (10% (v/v) sodium citrate buffer, 0.106M) from different species (see Table 1 below). The conjugates at 2.55 μM were incubated at 37° C. in plasma. Samples were analysed using the HPLC fluorescence method described below (see chromatographic equipment and conditions) following TFA/acetonitrile extraction and the amount of free camptothecin, analogs or derivatives thereof (e.g. SN38) released by the conjugates was measured.
(§3) Chromatographic equipment and conditions: 150 μL of each sample were placed in 1.5 mL micro-centrifuge tubes. 450 μL of 5% (v/v) TFA in H2O was added to each tube and the mixture was vortexed for 5 seconds. Samples were then centrifuged at 16000 g, 3 minutes at +4° C. 100 μL of supernatant were placed in 1.5 mL micro-centrifuge tubes. Methanol (100 μL) was then immediately added and vortexed for 5 seconds. Samples were then centrifuged at 16000 g, 3 minutes at room temperature. 150 μL of supernatant were recovered for HPLC analysis. Conjugates, metabolites and camptothecin derivative (i.e. SN38) were separated by high-performance liquid chromatography (HPLC; Agilent 1100 series equipped with a fluorescence detector) using a 4.6×100 mm ([…] particle size) Luna C18(2) column (Phenomenex ref. 00D-4251-E0, Le Pecq, France). The aqueous component of the mobile phase (A) was 0.1% (v/v) TFA in water. The organic modifier (B) was acetonitrile containing 0.1% (v/v) TFA. For the conjugate and its metabolites an elution gradient increasing linearly the proportion of B from 15 to 37% in 2 min, from 37 to 47% in 6 min, followed by 2 min at 90% was applied with a constant flow rate of 1.2 mL/min. The proportion of B was then returned to the initial condition for 3.0 min.
(§4) The half life time of conjugate corresponds to the time necessary to have 50% by mole of free camptothecin, analogs or derivatives thereof released by the conjugates of the invention. In human plasma, the half life time of conjugate DPV1047-linker #1-SN38 (less than 5 mins) was shorter than that of conjugate DPV1047-linker #2-SN38 (6-7 mins), which, in turn, was shorter than that of conjugate DPV1047-linker #3-SN38 (12 mins).
(§5) As in Example II, the stability of these conjugates was tested in either human or dog plasma. Following incubation at 37° C., samples were analyzed after a TFA acetonitrile extraction by the HPLC fluorescence method described in Example II. The in vitro cytotoxicity (IC50) of these compounds was also evaluated.

[4] = as above; type: in vitro ADME, human; details: human, plasma
Method: as §2, §3, §4, §5

HT-29 tumors = test: Combination of DPV1047-BCH-SN38 with 5-FU or bevacizumab in the HT-29 tumor model; details: 5-FU 40 mg/kg i.v. or bevacizumab 2 mg/kg i.p.
Method: Mice were implanted with HT-29 tumors and treated by intraperitoneal administration (bevacizumab) or bolus intravenous injection (5-FU or DPV1047-BCH-SN38) at 10 μL/g. […] The T/C ratio was calculated following treatment with either bevacizumab, 5-FU or DPV1047-BCH-SN38. These T/C ratios were used to evaluate the expected T/C for combined treatment with bevacizumab and DPV1047-BCH-SN38, or 5-FU and DPV1047-BCH-SN38 (T/C of DPV1047-BCH-SN38×T/C of bevacizumab or 5-FU). […] The combination index of the two molecules was calculated by dividing the expected T/C by the observed T/C.

[5] = Stability of conjugates in citrated plasma at 37° C. (half life time, HPLC fluorescence); type: in vitro ADME; details: DPV1047-linker-SN38, 2.55 μM
Method: as §2, §3, §4

[6] = Table 14, 10-Hydroxycamptothecin conjugates, read-out: Dog Plasma Half life time
[7] = Table 14, 10-Hydroxycamptothecin conjugates, read-out: Human Plasma Half life time
[8] = line of DPV1047-BCH-SN38 12.5 μmol/kg
[9] = line of DPV1047-BCH-SN38 25 μmol/kg
[10] = DPV1047-linker-SN38, 2.55 μM, citrated plasma, read-out: Half life time, Dog plasma
[11] = DPV1047-linker-SN38, 2.55 μM, citrated plasma, read-out: Half life time, Human plasma
[12] = time to 50% by mole free SN38 released, read-out: Half life time, Mouse plasma

CC[C@H](C)[C@H](NC(=O)[C@H](CCCCN)NC(=O)[C@@H](NC(=O)[C@H](CCC(N)=O)NC(=O)[C@H](CCCNC(=N)N)NC(=O)[C@@H](N)CSC1CC(=O)N(CC2CCC(C(=O)NC[C@H]3CC[C@H](C(=O)Oc4ccc5nc6c(cc5c4)Cn4c-6cc5c(c4=O)COC(=O)[C@]5(O)CC)CC3)CC2)C1=O)[C@@H](C)CC)C(=O)N[C@@H](Cc1c[nH]c2ccccc12)C(=O)N[C@@H](Cc1ccccc1)C(=O)N[C@@H](CCC(N)=O)C(=O)N[C@@H](CC(N)=O)C(=O)N[C@@H](CCCNC(=N)N)C(=O)N[C@@H](CCCNC(=N)N)C(=O)N[C@@H](CCSC)C(=O)N[C@@H](CCCCN)C(=O)N[C@@H](Cc1c[nH]c2ccccc12)C(=O)N[C@@H](CCCCN)C(=O)N[C@@H](CCCCN)C(=O)O (some centres unmarked)
IC50 ([1]; 48 h): 161 nM
IC50 ([2]; 48 h): 194 nM
half-life [3, 6]: 1.83 h
half-life [4, 7]: 0.533 h

O=c1[nH]cc(F)c(=O)[nH]1 [5-FU, 5-fluorouracil, reference compound]
Single treatment Reference drug T/C % (HT-29 tumors; [8]): 90%
Single treatment Reference drug T/C % (HT-29 tumors; [9]): 94%

CC[C@@]1(O)C(=O)OCc2c1cc1n(c2=O)Cc2cc3cc(O)ccc3nc2-1 [10-Hydroxycamptothecin, reference compound]
IC50 ([1]; Homo sapiens, NCI-H460, 48 h, read-out: Drug concentration that inhibits 50% of cell viability (IC50), NCI-H460): 21 nM
IC50 ([2]; Homo sapiens, HCT-116, 48 h, read-out: Drug concentration that inhibits 50% of cell viability (IC50), HCT 116): 64 nM

CCc1c2c(nc3ccc(OC(=O)[C@H]4CC[C@H](CNC(=O)C5CCC(CN6C(=O)CC(SCC(N)C(=O)N[C@@H](C(=O)N[C@H](CCCCN)C(=O)N[C@H](CCCNC(=N)N)C(=O)NCC(=O)N[C@H](CC(C)C)C(=O)N[C@H](CCCCN)C(=O)N[C@H](CC(C)C)C(=O)N[C@H](CCCNC(=N)N)C(=O)N[C@H](Cc7c[nH]cn7)C(=O)N[C@@H](C(=O)N[C@H](CCCNC(=N)N)C(=O)N7CCC[C@@H]7C(=O)N[C@H](CCCNC(=N)N)C(=O)N[C@@H](C(=O)N[C@@H](C(=O)N[C@H](CCCNC(=N)N)C(=O)N[C@H](CCSC)C(=O)N[C@H](CC(=O)O)C(=O)N[C@@H](C(=O)O)C(C)C)[C@H](C)O)C(C)C)C(C)C)C(C)C)C6=O)CC5)CC4)cc13)-c1cc3c(c(=O)n1C2)COC(=O)[C@]3(O)CC (some centres unmarked) [DPV1047(D)-linker #5-SN38]
IC50 ([2]; 48 h): 23 nM
half-life ([3]; Table 12, CPP-linker #5-SN38 conjugates incl. D conformation, read-out: Dog Plasma Half life time): 2.75 h
half-life ([4]; Table 12, CPP-linker #5-SN38 conjugates incl. D conformation, read-out: Human Plasma Half life time): 1.83 h

CCc1c2c(nc3ccc(OC(=O)CCCCCNC(=O)C4CCC(CN5C(=O)CC(SC[C@H](N)C(=O)N[C@H](C(=O)N[C@@H](CCCCN)C(=O)N[C@@H](CCCNC(=N)N)C(=O)NCC(=O)N[C@@H](CC(C)C)C(=O)N[C@@H](CCCCN)C(=O)N[C@@H](CC(C)C)C(=O)N[C@@H](CCCNC(=N)N)C(=O)N[C@@H](Cc6c[nH]cn6)C(=O)N[C@H](C(=O)N[C@@H](CCCNC(=N)N)C(=O)N6CCC[C@H]6C(=O)N[C@@H](CCCNC(=N)N)C(=O)N[C@H](C(=O)N[C@H](C(=O)N[C@@H](CCCNC(=N)N)C(=O)N[C@@H](CCSC)C(=O)N[C@@H](CC(=O)O)C(=O)N[C@H](C(=O)O)C(C)C)[C@@H](C)O)C(C)C)C(C)C)C(C)C)C5=O)CC4)cc13)-c1cc3c(c(=O)n1C2)COC(=O)[C@]3(O)CC (some centres unmarked) [DPV1047-linker #4-SN38] (H-C(X3)VKRGLKLRHVRPRVTRMDV-OH)
half-life [3, 10]: 1.75 h
half-life [4, 11]: 0.667 h
half-life [5, 12]: < 0.05 h
half-life ([5]; monkey): 0.5 h
half-life ([5]; rat): 0.05 h

CC[C@@]1(O)C(=O)OCc2c1cc1n(c2=O)Cc2cc3cc(OC(=O)[C@H]4CC[C@H](CNC(=O)C5CCC(CN6C(=O)CC(SC[C@H](N)C(=O)N[C@H](C(=O)N[C@@H](CCCCN)C(=O)N[C@@H](CCCNC(=N)N)C(=O)NCC(=O)N[C@@H](CC(C)C)C(=O)N[C@@H](CCCCN)C(=O)N[C@@H](CC(C)C)C(=O)N[C@@H](CCCNC(=N)N)C(=O)N[C@@H](Cc7c[nH]cn7)C(=O)N[C@H](C(=O)N[C@@H](CCCNC(=N)N)C(=O)N7CCC[C@H]7C(=O)N[C@@H](CCCNC(=N)N)C(=O)N[C@H](C(=O)N[C@H](C(=O)N[C@@H](CCCNC(=N)N)C(=O)N[C@@H](CCSC)C(=O)N[C@@H](CC(=O)O)C(=O)N[C@H](C(=O)O)C(C)C)[C@@H](C)O)C(C)C)C(C)C)C(C)C)C6=O)CC5)CC4)ccc3nc2-1 (some centres unmarked) [DPV1047-linker #5-10 Hydroxycamptothecin] (H-C(X4)VKRGLKLRHVRPRVTRMDV-OH; N-terminus and C-terminus assumed)
IC50 ([1]; 48 h): 112 nM
IC50 ([2]; 48 h): 185 nM
half-life [3, 6]: 3 h
half-life [4, 7]: 3.57 h

CCc1c2c(nc3ccc(OC(=O)[C@H]4CC[C@H](CNC(=O)CCCCCNC(=O)C5CCC(CN6C(=O)CC(SC[C@H](N)C(=O)N[C@H](C(=O)N[C@@H](CCCCN)C(=O)N[C@@H](CCCNC(=N)N)C(=O)NCC(=O)N[C@@H](CC(C)C)C(=O)N[C@@H](CCCCN)C(=O)N[C@@H](CC(C)C)C(=O)N[C@@H](CCCNC(=N)N)C(=O)N[C@@H](Cc7c[nH]cn7)C(=O)N[C@H](C(=O)N[C@@H](CCCNC(=N)N)C(=O)N7CCC[C@H]7C(=O)N[C@@H](CCCNC(=N)N)C(=O)N[C@H](C(=O)N[C@H](C(=O)N[C@@H](CCCNC(=N)N)C(=O)N[C@@H](CCSC)C(=O)N[C@@H](CC(=O)O)C(=O)N[C@H](C(=O)O)C(C)C)[C@@H](C)O)C(C)C)C(C)C)C(C)C)C6=O)CC5)CC4)cc13)-c1cc3c(c(=O)n1C2)COC(=O)[C@]3(O)CC (some centres unmarked) [DPV1047-linker #7-SN38] (H-C(X2)VKRGLKLRHVRPRVTRMDV-OH; N-terminus and C-terminus assumed)
half-life [3, 10]: 2.75 h
half-life [4, 11]: 2.5 h
half-life [5, 12]: < 0.05 h
half-life ([5]; monkey): 1.5 h
half-life ([5]; rat): 0.15 h

Tat-linker #7-10 Hydroxycamptothecin: Tat48-60 peptide coupled via linker #7 to 10-Hydroxycamptothecin (GRKKRRQRRRAHQ; also: coupled via linker #7 to 10-hydroxycamptothecin, site not given here; UniProt P04608 48-60, looked up, fragment)
IC50 ([1]; Table 15, 48 h continuous exposure, mean of three independent experiments, read-out: Drug concentration that inhibits 50% of cell viability (IC50), NCI-H460): 127 nM
IC50 ([2]; Table 15, 48 h continuous exposure, mean of three independent experiments, read-out: Drug concentration that inhibits 50% of cell viability (IC50), HCT 116): 158 nM

bevacizumab: bevacizumab (Avastin®, Roche)
Single treatment Reference drug T/C % (HT-29 tumors; [8]): 67%
Single treatment Reference drug T/C % (HT-29 tumors; [9]): 67%
